Reference: publication PMC9802656 (2022)

How the values were obtained:
[1] = target: SARS-CoV-2 S protein S1 (SARS-CoV-2); assay: ELISA
[2] = target: SARS-CoV-2 S protein (entire S ectodomain) as used with m31A7 (SARS-CoV-2, UniProt P0DTC2 14-1213); assay: ELISA
[3] = target: SARS-CoV-2 WT S protein expressed on HEK293T cells (SARS-CoV-2, UniProt P0DTC2); assay: FACS

B1: monoclonal antibody m31A7 (IgG) (antibody, V domains shown)
VH: EVQLQQSGPEMVKPGASVKISCKTSGYTFTEYTIYWVKQSHGKSLEWLGGINPNIGDTTYNQKFKGKATLTVDTSSSTAYMELRSLTSEDSAVYYCAREVYNYSFAYWGQGTLVTVSA
VL: DIVMSQSPSSLAVSVGEKVTMSCKSSQSLLYSSNQKNYLAWYQQKLGQTPKLLIYWASSRESGVPDRFTGSGSGTDFTLTISSVRAEDLAVYYCQQYYRYPLTFGVGTKLELK
B1 showed an EC50 [1] of 0.0235 nM, an EC50 [2] of 0.0312 nM and an EC50 [3] of 0.0685 nM.
